Laboratory results reported in PMC2785718, “Structure/function studies of dogfish α-crystallin, comparison with bovine α-crystallin” (Molecular Vision, 2009).

B1: bovine αA-crystallin (natural protein, bovine (endogenous in lens), UniProt P02470 1-173, looked up)
chain: MDIAIQHPWFKRTLGPFYPSRLFDQFFGEGLFEYDLLPFLSSTISPYYRQSLFRTVLDSGISEVRSDRDKFVIFLDVKHFSPEDLTVKVQEDFVEIHGKHNERQDDHGYISREFHRRYRLPSNVDQSALSCSLSADGMLTFSGPKIPSGVDAGHSERAIPVSREEKPSSAPSS
notes: αA-crystallin polypeptide of bovine lens α-crystallin; native subunit, not separated from αB-crystallin; Native polypeptide from lens; also called bovine αA chain; bovine αA-crystallin subunit
B2: dogfish αA-crystallin (natural protein, spiny dogfish (endogenous in lens), UniProt P02509 1-177, looked up)
chain: MDLAIQYPWFRRSLGSFYPSRLFDQFFGEGLFDYDLFPFFSSTISPYYRQSVFRNFLDSGISEVRSEKDRFMINLNVKHFSPEELSVKIVDDYVEIHGKHAERQEDQGRVSREFHRTYHLPSNLNESAIACSLSNEGLLTLCCPKTRPGDDSNWQDRPIPVSREEKQGTQPEIRADP
notes: αA-crystallin polypeptide of spiny dogfish lens α-crystallin; native subunit, not separated from αB-crystallin; tryptophan at positions 9 and 154; Native polypeptide from lens; also called αA chain; αA-crystallin subunit

What was measured:
bovine αB-crystallin = target: T1, bovine αB-crystallin (bovine (endogenous in lens), UniProt P02510 1-175); assay: SEC; gel filtration of lens extract on Sephacryl S300 in phosphate buffered saline with sodium azide, pH 7.2, room temperature; central 50% of the α-crystallin peak rechromatographed; size by comparison with known proteins; subunits of the isolated native hetero-oligomer by SDS-PAGE (only α-crystallin polypeptides present); conditions: both partners purified
T1 construct: αB-crystallin polypeptide of bovine lens α-crystallin; native subunit, not separated from αA-crystallin; Native polypeptide from lens; also called bovine αB-crystallin polypeptide
T1 sequence (looked up): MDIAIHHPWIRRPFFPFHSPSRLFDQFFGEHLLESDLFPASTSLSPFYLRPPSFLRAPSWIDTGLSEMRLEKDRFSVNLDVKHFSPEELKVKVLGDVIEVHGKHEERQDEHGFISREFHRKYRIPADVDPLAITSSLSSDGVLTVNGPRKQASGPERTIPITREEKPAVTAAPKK

dogfish αB-crystallin = target: T2, dogfish αB-crystallin (spiny dogfish (endogenous in lens), UniProt P02512 1-177); assay: as above; conditions: both partners purified
T2 construct: αB-crystallin polypeptide of spiny dogfish lens α-crystallin; native subunit, not separated from αA-crystallin; tryptophan at positions 9, 49 and 63; Native polypeptide from lens; It accounts for >80% of dogfish α-crystallin; also called αB polypeptide; αB subunit
T2 sequence (looked up): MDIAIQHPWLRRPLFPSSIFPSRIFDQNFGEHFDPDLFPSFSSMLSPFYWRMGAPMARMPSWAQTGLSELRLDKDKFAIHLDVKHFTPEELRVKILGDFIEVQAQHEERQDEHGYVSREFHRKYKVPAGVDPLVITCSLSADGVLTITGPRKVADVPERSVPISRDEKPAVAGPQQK

Binder	binding result (bovine αB-crystallin)	stoichiometry N (dogfish αB-crystallin)
B1	binds	–
B2	–	~0.2 αA:αB
